Measurements reported in patent US20140221623A1 (Ablynx, published 2014).
Several values for one entry are separate records, joined by “and”; a condition that tells them apart may be missing. Equal values may be shown once. Read-outs that look alike come from different tables or passages of the source.

T1: IL6-R on U266 cells (human, UniProt P08887 20-468)
T1 sequence (looked up): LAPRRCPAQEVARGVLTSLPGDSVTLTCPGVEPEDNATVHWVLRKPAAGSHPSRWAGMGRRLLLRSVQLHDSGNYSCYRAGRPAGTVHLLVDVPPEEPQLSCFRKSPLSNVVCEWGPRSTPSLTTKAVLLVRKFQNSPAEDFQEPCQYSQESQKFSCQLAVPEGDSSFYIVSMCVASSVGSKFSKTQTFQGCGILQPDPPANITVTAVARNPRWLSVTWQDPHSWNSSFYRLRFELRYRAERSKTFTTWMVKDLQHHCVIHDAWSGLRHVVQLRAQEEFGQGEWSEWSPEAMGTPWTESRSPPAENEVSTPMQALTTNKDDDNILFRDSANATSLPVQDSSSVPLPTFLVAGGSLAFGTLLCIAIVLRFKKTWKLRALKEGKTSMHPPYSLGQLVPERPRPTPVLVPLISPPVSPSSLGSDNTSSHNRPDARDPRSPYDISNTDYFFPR

T2: Human soluble IL6-R (human, UniProt P08887 20-358)
T2 construct: Bought soluble receptor; biotinylated in some Alphascreen assays; also called sIL6-R; hIL-6R
T2 sequence (looked up): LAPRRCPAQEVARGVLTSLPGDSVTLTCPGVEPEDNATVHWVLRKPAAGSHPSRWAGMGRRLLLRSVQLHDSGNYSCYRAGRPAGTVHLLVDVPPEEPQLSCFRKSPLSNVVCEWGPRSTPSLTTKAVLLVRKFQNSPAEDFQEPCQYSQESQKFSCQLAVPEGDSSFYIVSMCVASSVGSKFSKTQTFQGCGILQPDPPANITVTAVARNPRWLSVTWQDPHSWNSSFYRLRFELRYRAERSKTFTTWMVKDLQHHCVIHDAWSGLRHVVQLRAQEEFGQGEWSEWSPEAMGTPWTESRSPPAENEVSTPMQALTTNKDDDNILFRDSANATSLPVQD

B1: IL6R14 (VHH)
VHH: EVQLVESGGGLVQPGGSLRLSCAASGFSLDYYAIGWFRQAPGKEREGVSCMDSSSGTTSTYYSDSVKGRFTISRDDAKNTVYLQMNSLKPEDTAVYYCAADGHLNWGQRYVPCSQISWRGWNDYWGQGTQVTVSS
notes: also called PMP40H5; PMP 40 H5
B2: IL6R13 (VHH)
VHH: EVQLVESGGGLVQPGGSLRLSCAASGFTFDDYGMSWVRQAPGRATEWVSAISWNGNNTYYTESMKGRFTISRDNAKNTVYLQMNSLKPEDTAVYYCVKGSTAIVGVPPTYPDEYDYWGQGTQVTVSS
notes: also called PMP35H4; PMP 35 H4
B3: IL6R06 (VHH)
VHH: EVQLVESGGGLVQAGGSLRLSCAASGNIFDDNTMGWTWNRQPPGKQRELVAIIATDGSTNYADSVKGRFTISRDNAKNTVYLQMNSLKPEDTAVYYCNLFSLRLGRDYWGQGTQVTVSS
notes: also called PMP32E2; PMP 32 E2
B4: IL6R12 (VHH)
VHH: EVQLVESGGGLVQAGGSLRLSCAASGRTFSSYDMGWYRQAPGKEREFVAIITWNSSTYYADSVKGRFTISRDNAKNTVYLQMNSLKPEDTAIYYCNAQYGLGYAEDYWGQGTQVTVSS
notes: also called PMP35F4; PMP 35 F4
B5: IL6R02 (VHH)
VHH: EVQLVESGGGLVQAGGSLRLSCAASGRTFSSYDMGWYRQAPGKEREFVAVISRSGSSTYYADSVKGRFTISRDNAKNTVYLQMNSLKPEDTAIYYCKAEVVAGDYDYWGQGTQVTVSS
notes: also called PMP30C11; PMP 30 C11
B6: IL6R05 (VHH)
VHH: EVQLVESGGGLVQPGGSLRLSCAASGFTFGSYDMSWVRQAPGKGPEWVSAINSGGGSTYYADSVKGRFTISRDNAKNTLYLQMNSLKPEDTAVYYCATDWRYSDYDLPLPPPGDYWGQGTQVTVSS
notes: also called PMP32E10; PMP 32 E10
B7: IL6R07 (VHH)
VHH: EVQLVESGGGLVQPGGSLRLSCAASGFTLDYGAIGWFRQAPGKEREGVSCISSSTGSTYYADSVKGRFTISRDNGKNTVYLQMNSLKPEDTAVYYCAADKMWSPCLVAANEEALFEYDYWGQGTQVTVSS
notes: also called PMP33A3; PMP 33 A3
B8: IL6R10 (VHH)
VHH: EVQLVESGGGLVQAGGSLRLSCAASGRTFSSYDMGWYRQAPGKEREFVAVIHWSSGSTYYADPVKGRFTISRDNAKNTVYLQMNSLKPEDTAIYYCNAFLPGPEGFHDYWGQGTQVTVSS
notes: also called PMP35C10; PMP 35 C10
B9: IL6R11 (VHH)
VHH: EVQLVESGGGLVQAGGSLRLSCAASGFTFDDYAIGWFRQAPGKEHEGVSCISSSDGSTYYADSVKGRFTISSDNAKNTVYLQMNSLKPEDTAVYYCAAERDVPARSLCGSYYWYDYRGQGTQVTVSS
notes: also called PMP35E11; PMP 35 E11
B10: IL6R03 (VHH)
VHH: EVQLVESGGGLVQAGGSLRLSCAASGSIFKVNAMGWYRQAPGKQRELVAGIISGGSTNYADSVKGRLTISRDNAKNTVYLQMNSLKPEDTAVYYCSFVTTNSDYDLGRDYWGQGTQVTVSS
notes: also called PMP31A4; PMP 31 A4
B11: IL6R01 (VHH)
VHH: EVQLVESGGGFVQAGGSLRLSCIASGDNFSINRMGWYRQALGKQRELVAIITNHGSTNYADAVKGRFTISRDYAKNTVYLQMNGLKPDDTAVYYCNAYISEVGTWRDDYWGQGIQVTVSS
notes: also called PMP28E11; PMP 28 E11
B12: Reference Fab (Fab, V domains shown)
VH: QVQLQESGPGLVRPSQTLSLTCTVSGYSITSDHAWSWVRQPPGRGLEWIGYISYSGITTYNPSLKSRVTMLRDTSKNQFSLRLSSVTAADTAVYYCARSLARTTAMDYWGQGSLVTVSS
VL: DIQMTQSPSSLSASVGDRVTITCRASQDISSYLNWYQQKPGKAPKLLIYYTSRLHSGVPSRFSGSGSGTDFTFTISSLQPEDIATYYCQQGNTLPYTFGQGTKVEIKR
notes: Anti-human IL-6R Fab according to EP 0 628 639, made in E. coli periplasm; also called Tocilizumab-Fab
B13: IL6R09 (VHH)
VHH: EVQLVESGGGLVQAGGSLRLSCAASGRTSSSYDMTWYRQVPGKEREFVAVISWSGGSTYYADSVKGRFTISRDNAKNTVYLQMNSLKPEDTAIYYCNAYTGGGDDYWGQGTQVTVSS
notes: also called PMP34G9; PMP 34 G9
B14: IL6R08 (VHH)
VHH: EVQLVESGGGLVQPGGSLRLSCVASGFSLDYYVIGWFRQAPGKEREGVSCISSSDGSTYYADSVKGRFTISRDNAKNTVYLQMNSLKPEDTAVYYCAADLLRTPEFCVDSAPYDYWGQGTQVTVSS
notes: also called PMP34A12; PMP 34 A12

Columns and labels:
IL6-R on U266 cells [1] = target: T1, IL6-R on U266 cells; assay: cell-based or functional assay
Human soluble IL6-R [2] = target: T2, Human soluble IL6-R; assay: SPR (Biacore), off-rate
Human soluble IL6-R [3] = target: T2, Human soluble IL6-R; assay: Alphascreen, 100 nM Nanobody; competitor Reference-Fab on beads
IL6-R on U266 cells [4] = target: T1, IL6-R on U266 cells; assay: cell-based or functional assay; remark: listed apart in the source
IL6-R on U266 cells [5] = target: T1, IL6-R on U266 cells; assay: cell-based or functional assay; remark: listed apart in the source
IL6-R on U266 cells [6] = target: T1, IL6-R on U266 cells; assay: cell-based or functional assay; remark: listed apart in the source
Human soluble IL6-R [7] = target: T2, Human soluble IL6-R; assay: SPR (Biacore 3000), IL6-R on CM5 chip

Molecule	IC50 (+1% HSA), TF-1 proliferation (IL6-R on U266 cells [1])	IC50 (w/o HSA), TF-1 proliferation (IL6-R on U266 cells [1])	IC50, XG-1 proliferation (IL6-R on U266 cells [1]) [nM]	koff (Human soluble IL6-R [2]) [s⁻¹]	% binding retained in competition with Reference-Fab (Human soluble IL6-R [3]) [%]	IC50, XG-1 proliferation with 1 mg/mL human serum albumin (IL6-R on U266 cells [4]) [nM]	IC50, TF-1 proliferation (IL6-R on U266 cells [5]) [nM]	IC50, XG-1 proliferation (IL6-R on U266 cells [6]) [nM]	Kd (Human soluble IL6-R [7])	koff (Human soluble IL6-R [7])	kon (Human soluble IL6-R [7])
MAb BR-6 (antibody)	0.088	0.042	0.064								
MAb BN-12 (antibody)			0.272								
B1				0.000114	96	0.751	1.75	0.603	0.25 nM	0.0001 s⁻¹ and 0.000114 s⁻¹	402000 M⁻¹ s⁻¹
B2				0.000178	25	1.32	7.2	1.4	0.53 nM and 0.79 nM	0.000121 s⁻¹ and 0.000109 s⁻¹ and 0.000178 s⁻¹	231000 M⁻¹ s⁻¹ and 137000 M⁻¹ s⁻¹
B3				0.000886	36		77.2	42	7.1 nM		1.07e+06 M⁻¹ s⁻¹
B4				0.000896	103		6.92	2.75	1.71 nM	0.00116 s⁻¹ and 0.000896 s⁻¹	678000 M⁻¹ s⁻¹
B5				0.00294	86		29.7	31	5.9 nM	0.00294 s⁻¹ and 0.00495 s⁻¹	840000 M⁻¹ s⁻¹
B6				0.00127	64		19.9	7.29	9.79 nM	0.00141 s⁻¹ and 0.00127 s⁻¹	144000 M⁻¹ s⁻¹
B7				0.000242	80		35	50.5		0.000242 s⁻¹	
B8				0.000509	102		9.15	2.55	1.27 nM	0.000526 s⁻¹ and 0.000509 s⁻¹	414000 M⁻¹ s⁻¹
B9				0.000417	40		6.62	5.37	0.87 nM and 1.85 nM	0.00034 s⁻¹ and 0.000396 s⁻¹ and 0.000417 s⁻¹	391000 M⁻¹ s⁻¹ and 215000 M⁻¹ s⁻¹
B10				0.0016	5	17.5	28.1	16.2	3.03 nM	0.00147 s⁻¹ and 0.0016 s⁻¹	484000 M⁻¹ s⁻¹
B11					49				0.418 nM	0.00011 s⁻¹	262000 M⁻¹ s⁻¹
B12								5.99	0.86 nM	0.00066 s⁻¹	768000 M⁻¹ s⁻¹
B13				0.00139	62	2.98	10	2.75	2.01 nM and 1.17 nM	0.0013 s⁻¹ and 0.00139 s⁻¹ and 0.00129 s⁻¹	641000 M⁻¹ s⁻¹ and 1.11e+06 M⁻¹ s⁻¹
B14					99		42.9	36.6	10.2 nM	0.00197 s⁻¹	194000 M⁻¹ s⁻¹
